The text below walks through data of paper PMC8093899 (iScience, 2021).

Data set [1] has as its target full-length CD146, wild type, with a FLAG tag or a Myc tag (human, UniProt P43121). The experiment in a line: co-IP.
The data set “SEC” deals with the molecule itself. The experiment in a line: SEC. A general note: SEC sorts molecules by how far they enter the pores of the column.

full-length CD146, wild type, with a FLAG tag or a Myc tag, sequence (P43121 24-646): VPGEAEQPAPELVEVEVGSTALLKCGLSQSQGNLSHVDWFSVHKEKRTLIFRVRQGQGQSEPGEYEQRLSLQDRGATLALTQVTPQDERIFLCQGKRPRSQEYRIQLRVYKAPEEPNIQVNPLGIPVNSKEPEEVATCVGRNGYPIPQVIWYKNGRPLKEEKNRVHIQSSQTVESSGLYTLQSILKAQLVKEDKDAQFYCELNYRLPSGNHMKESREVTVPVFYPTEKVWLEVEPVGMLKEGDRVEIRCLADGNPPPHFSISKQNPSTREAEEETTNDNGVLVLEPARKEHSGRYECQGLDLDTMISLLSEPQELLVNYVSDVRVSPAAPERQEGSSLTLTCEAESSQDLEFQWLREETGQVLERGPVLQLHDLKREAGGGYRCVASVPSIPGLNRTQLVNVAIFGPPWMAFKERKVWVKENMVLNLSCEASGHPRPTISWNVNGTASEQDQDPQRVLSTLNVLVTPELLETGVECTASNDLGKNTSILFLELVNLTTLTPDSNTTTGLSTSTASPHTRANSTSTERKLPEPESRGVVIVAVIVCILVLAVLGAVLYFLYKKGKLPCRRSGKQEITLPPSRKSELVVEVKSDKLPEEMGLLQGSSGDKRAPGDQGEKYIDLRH

B1: HA98 (AA98 mAb mutant H13–112: heavy chain (I28K)/light chain (L51Y)) (antibody, V domains shown)
VH: EVQLLESGAELVRPGASVKLSCKTSGYKFTNYWIHWVKQRSGQGLEWIARIYPGTDITYYNEKFKGKATLTVDKSSSSAYMLLSSLKSEDSSVYFCARSGGYWYFDVWGAGTTVTVSS
VL: ELVMTQSPASLAVSLGQRATISCRASKSVSISGYSYMHWYQQKPGQPPKLYIYLASNLESGVPARFSGSGSGTDFTLNIHPVEEEDAATYYCQHSRELPYTFGGGTKLEIK
With B1, the binding result in data set [1] is reported as “binds”.

B2: human CD146 fragment containing domain 4 and domain 5 (D4-D5, Gln336 to Leu519) (domain or fragment, UniProt P43121 336-519, looked up)
chain: QELLVNYVSDVRVSPAAPERQEGSSLTLTCEAESSQDLEFQWLREETGQVLERGPVLQLHDLKREAGGGYRCVASVPSIPGLNRTQLVNVAIFGPPWMAFKERKVWVKENMVLNLSCEASGHPRPTISWNVNGTASEQDQDPQRVLSTLNVLVTPELLETGVECTASNDLGKNTSILFLELVNL
modifications: two N-glycosylation sites on D4 and D5 seen in the electron density map
As for B2, the stoichiometry N (usually a count of units in the complex or per binding partner) in the data set “SEC” is 2.
